According to patent CN1905899A (dated 2007):

Biological target: T1, EphA2 on cells (MDA-MB-231, MCF-10A, A549, MCF-7 EphA2 transfectants, prostate cancer tissue) (human, UniProt P29317 24-976)
T1 construct: whole, on cells; The other cells are human cell lines; also called EphA2受体
Assay: immunofluorescence staining of cells

T1 sequence (P29317 24-976): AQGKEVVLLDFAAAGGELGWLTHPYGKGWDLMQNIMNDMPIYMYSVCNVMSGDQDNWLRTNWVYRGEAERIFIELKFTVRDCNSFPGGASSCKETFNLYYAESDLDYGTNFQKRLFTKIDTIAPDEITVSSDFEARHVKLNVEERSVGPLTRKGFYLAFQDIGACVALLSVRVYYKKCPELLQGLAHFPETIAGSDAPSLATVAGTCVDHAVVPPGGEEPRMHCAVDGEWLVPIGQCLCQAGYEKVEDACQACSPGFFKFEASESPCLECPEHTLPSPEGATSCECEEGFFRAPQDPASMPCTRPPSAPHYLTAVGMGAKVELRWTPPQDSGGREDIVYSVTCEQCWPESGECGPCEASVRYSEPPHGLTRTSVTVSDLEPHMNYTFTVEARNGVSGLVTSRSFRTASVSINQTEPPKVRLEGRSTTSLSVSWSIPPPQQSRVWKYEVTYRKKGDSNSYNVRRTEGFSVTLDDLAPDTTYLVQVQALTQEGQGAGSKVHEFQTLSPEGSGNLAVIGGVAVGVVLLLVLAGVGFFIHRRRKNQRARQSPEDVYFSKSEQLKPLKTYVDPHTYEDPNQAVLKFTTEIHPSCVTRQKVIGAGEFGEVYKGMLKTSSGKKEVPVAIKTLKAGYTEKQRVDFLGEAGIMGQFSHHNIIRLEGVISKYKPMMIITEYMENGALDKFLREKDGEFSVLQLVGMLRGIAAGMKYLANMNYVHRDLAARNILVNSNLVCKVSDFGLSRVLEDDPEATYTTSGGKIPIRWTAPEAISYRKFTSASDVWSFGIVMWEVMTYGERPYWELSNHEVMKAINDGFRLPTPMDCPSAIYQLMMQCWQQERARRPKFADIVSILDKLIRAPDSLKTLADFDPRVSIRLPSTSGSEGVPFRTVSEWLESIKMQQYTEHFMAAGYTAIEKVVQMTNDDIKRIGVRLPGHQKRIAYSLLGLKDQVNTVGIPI

- binding result: binds
B1: EA2 anti-EphA2 monoclonal antibody (hybridoma strain EA2.31, ATCC PTA-4380) (antibody, V domains shown)
VH: DVKLVESGGGLVKPGGSLKLSCAASGFTFSSYTMSWVRQTPEKRLEWVATISSGGTYTYYPDSVKGRFTISRDNAKNTLYLQMSSLKSEDTAMYYCTREAIFTYWGQGTLVTVSA
VL: DIKMTQSPSSMYASLGERVTITCKASQDINNYLSWFQQKPGKSPKTLIYRANRVDGVPSRFSGSGSGQDYSLTISSLEYEDMGIYYCLKYDEFPYTFGGGTKLEIK
notes: Mouse hybridoma monoclonal
